Measured values reported in patent US20190194329A1 (AbbVie / Abbott, published 2019).

T1: His-tagged ECD of mouse 4-1BB (mouse, UniProt P20334 24-187)
T1 construct: also called murine 4-1BB; mu4-1BB; not shown: His tag
T1 sequence: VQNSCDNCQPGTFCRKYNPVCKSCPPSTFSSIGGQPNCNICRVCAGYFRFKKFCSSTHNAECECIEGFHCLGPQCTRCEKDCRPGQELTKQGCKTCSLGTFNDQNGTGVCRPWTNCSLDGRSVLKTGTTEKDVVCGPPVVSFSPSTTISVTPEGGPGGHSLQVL

T2: His-tagged ECD of cynomolgus monkey 4-1BB (cynomolgus monkey, UniProt Q07011 24-186 (human entry))
T2 construct: also called cynomolgus 4-1BB; cyno 4-1BB; not shown: His tag
T2 chain: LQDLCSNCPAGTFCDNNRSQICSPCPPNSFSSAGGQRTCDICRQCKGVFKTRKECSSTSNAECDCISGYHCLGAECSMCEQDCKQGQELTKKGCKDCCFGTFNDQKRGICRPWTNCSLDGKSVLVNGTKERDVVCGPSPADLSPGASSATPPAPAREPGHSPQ

B1: Mouse TABBY9 with mouse IgG1 constant (antibody, V domains shown)
VH: QVQLKQSGPGLVQPSQSLSITCTVSGFSLTSYGVHWVRQSPGKGLEWLGMIWSGGSTDYNAAFISRLSISKDNSKSQVFFKMNSLQADDTALYFCASYGGFYETMDYWGQGTSVTVSS
VL: DIQMTQTTSSLSASLGDRITISCRASQDISNYLNWYQRKPDGTVKLLIYYTSRLHSGVPSRFSGSGSGRDYSLTISNLEQEDIATYFCQQGNTLPYTFGGGTKLEIK
notes: Mouse IgG1; also called TABBY9-mIgG1
B2: hu106-4-hIgG4 (antibody, V domains shown)
VH: EVQLVQSGAEVKKPGSSVKVSCKASGYTFTSYYIYWVRQAPGQGLEWIGNIWPGNGGTFYGEKFMGRATFTADTSTSTAYMELSSLRSEDTAVYYCARRPDYSGDDYFDYWGQGTLVTVSS
VL: SVELTQPPSVSVSPGQTARITCKLNSGNIGSYYVHWYQQKPGQAPVTMIYRDDKRPDGIPERFSGSSDSSSNSAFLTISGVQAEDEADYYCHSYDSTITPVFGGGTKLTVL
notes: Human IgG4 constant region with the S228P mutation; also called hu106.1x.3x
B3: hu106-7-hIgG4 (antibody, V domains shown)
VH: EVQLVESGGGLVQPGGSLRLSCAASGYTFTSYYIYWVRQAPGKGLEWIGNIWPGNGGTFYGEKFMGRATFSADTSKNTAYLQMNSLRAEDTAVYYCARRPDYSGDDYFDYWGQGTLVTVSS
VL: B2 VL
notes: Human IgG4 constant region with the S228P mutation; also called hu106.1y.3x
B4: MOR-7480.1-hIgG2 (antibody, V domains shown)
VH: EVQLVQSGAEVKKPGESLRISCKGSGYSFSTYWISWVRQMPGKGLEWMGKIYPGDSYTNYSPSFQGQVTISADKSISTAYLQWSSLKASDTAMYYCARGYGIFDYWGQGTLVTVSS
VL: SYELTQPPSVSVSPGQTASITCSGDNIGDQYAHWYQQKPGQSPVLVIYQDKNRPSGIPERFSGSNSGNTATLTISGTQAMDEADYYCATYTGFGSLAVFGGGTKLTVLG
B5: 20H4.9-hIgG4 (antibody, V domains shown)
VH: QVQLQQWGAGLLKPSETLSLTCAVYGGSFSGYYWSWIRQSPEKGLEWIGEINHGGYVTYNPSLESRVTISVDTSKNQFSLKLSSVTAADTAVYYCARDYGPGNYDWYFDLWGRGTLVTVSS
VL: EIVLTQSPATLSLSPGERATLSCRASQSVSSYLAWYQQKPGQAPRLLIYDASNRATGIPARFSGSGSGTDFTLTISSLEPEDFAVYYCQQRSNWPPALTFGGGTKVEIKR
B6: hu107-1-hIgG4 (antibody, V domains shown)
VH: EVQLVQSGAEVKKPGSSVKVSCKASDYTFNDYWVSWVRQAPGQGLEWIGEIYPNSGATNFNGKFRGRATLTVDNSASTAYMELSSLRSEDTAVYYCTREYTRDWFAYWGQGTLVTVSS
VL: DVVLTQSPLSLPVTLGQPASISCRSSQSLLDSDGNTYLYWFQQRPGQSPRRLIYLVSNLGSGVPDRFSGSGSGTDFTLKISRVEAEDVGVYYCMQPTHAPYTFGQGTKLEIK
notes: Human IgG4 constant region with the S228P mutation; also called hu107.1x.1x
B7: hu107-3-hIgG4 (antibody, V domains shown)
VH: B6 VH
VL: DVQLTQSPSSLSASVGDRVTITCRSSQSLLDSDGNTYLYWFQQKPGKAPKRLIYLVSNLGSGVPSRFSGSGSGTDFTLTISSLQPEDFATYYCMQPTHAPYTFGQGTKVEIK
notes: Human IgG4 constant region with the S228P mutation; also called hu107.1x.1y
B8: hu106-1-hIgG1 (antibody, V domains shown)
VH: B2 VH
VL: NVMLTQPHSVSESPGKTVTISCKLNSGNIGSYYVHWYQQRPGSSPTTMIYRDDKRPDGVPDRFSGSIDSSSNSASLTISGLKTEDEADYYCHSYDSTITPVFGGGTKLTVLG
notes: 310 is written here; Human IgG1 constant region bearing L234A and L235A; also called hu106.1x.1x
B9: hu107-1-hIgG1 (antibody, V domains shown)
VH: B6 VH
VL: DVVLTQSPLSLPVTLGQPASISCRSSQSLLDSDGNTYLYWFQQRPGQSPRRLIYLVSNLGSGVPDRFSGSGSGTDFTLKISRVEAEDVGVYYCMQPTHAPYTFGQGTKLEIKR
notes: 312 is written here; Human IgG1 constant region bearing L234A and L235A; also called hu107.1x.1x

The molecules below were run against T3, His-tagged ECD of human 4-1BB (human, UniProt Q07011 24-184) (assay: SPR (Biacore)).
T3 construct: also called hu4-1BB; 4-1BB ECD; not shown: His tag

Row | binding result | Molecule
1 | binds | B1

These molecules were tested against T1, His-tagged ECD of mouse 4-1BB (assay: SPR (Biacore), captured antibody, His-tagged ECD analyte).
Description: (§1) The binding kinetics of the 4-1BB antibodies for target proteins were determined by using a Biacore T200 surface plasmon resonance system (BlAcore, GE Healthcare, Piscataway, N.J.). Polyclonal goat anti-human Fc antibody (Pierce 31125) was first immobilized to the biosensor surface using standard amine coupling reagents (N-ethyl-N′-dimethylamino-propylcarbodiimide, EDC; N-hydroxysuccinimide, NHS; and ethanolamine HCl, pH 8.5), followed by the capture of antibodies on parallel surfaces at a low flow rate of 10 μL/min. No capture of the antibody was made on the reference surface to serve as a negative control. Antigen (His-tagged ECD of 4-1BB derived from human, cynomolgus monkey, or mouse) was injected to all flow cells at a flow rate of 80 μL/min for three minutes to monitor association followed by a 10-20-minute flow of HBS-EP+running buffer (10 mM HEPES, 150 mM sodium chloride, 3mM EDTA, 0.05% Tween-20, pH 7.5) to monitor the dissociation phase. […] The surface was regenerated by two consecutive injections of 10 mM glycine (pH 1.5) at a flow rate of 60 μL/min at the end of each cycle. Binding data were fit to the 1:1 Langmuir model to extract binding constants from the BlAevaluate software. Double referencing was applied in each analysis to eliminate background responses from the reference surface and buffer only control.

Row | Kd [nM] | koff [s⁻¹] | kon [M⁻¹ s⁻¹] | Molecule | binding result
2 | 3.9 | 0.008 | 2.1e+06 | literature anti-4-1BB antibody 1D8 | –
3 | 0.98 | 0.0057 | 5.8e+06 | literature anti-4-1BB antibody 3H3 | –
4 | 9.3 | 0.015 | 1.6e+06 | B2 | –
5 | 17 | 0.037 | 2.2e+06 | B3 | –
6 | – | – | – | B4 | no binding (tested: antigen between 100 nM and 3.7 nM)
7 | – | – | – | B5 | no binding (tested: antigen between 100 nM and 3.7 nM)
8 | 4 | – | 330000 | B6 | –
9 | 5.1 | 0.0016 | 320000 | B7 | –

These molecules were tested against T3, His-tagged ECD of human 4-1BB in the same assay as above.
Description: as §1

Row | Kd [nM] | koff [s⁻¹] | kon [M⁻¹ s⁻¹] | Molecule
10 | 200 | 0.042 | 210000 | B2
11 | 420 | 0.047 | 110000 | B3
12 | 4.9 | 0.0021 | 420000 | B5
13 | 0.58 | 8e-05 | 140000 | B6
14 | 0.81 | 0.00011 | 130000 | B7

Target: T2, His-tagged ECD of cynomolgus monkey …
Assay: as above
Description: as §1

Row | Kd [nM] | koff [s⁻¹] | kon [M⁻¹ s⁻¹] | Molecule
15 | 180 | 0.052 | 280000 | B2
16 | 170 | 0.1 | 620000 | B8
17 | 0.22 | 5.2e-05 | – | B6
18 | 0.13 | 4e-05 | 310000 | B9
19 | 0.29 | 7e-05 | 240000 | B7
